Reference: patent publication JPH07265077A (dated 1995)

Target: T1, Hemagglutinin (HA) of human influenza A virus A2/Aichi/2/68 (H3N2サブタイプ) (human influenza A virus A2/Aichi/2/68 …, UniProt P03437 17-566)
T1 construct: whole, on cells; also called A/Aichi/2/68; A2/Aichi/2/68

B1: モノクローナル抗体C179 (monoclonal antibody C179) (antibody, V domains shown)
VH: EVKLVESGGGLVQPGGSLRLSCGTSGFTLTDDYMTWVRQPPGKALEWLGFIRDRANGYTTEYSASVKGRFTISRDNSQSIVYLQMNTLRVEDSATYYCARPKGYFPYAMDYWGQGT
VL: DIQMTQSPASQSASLGESVTITCLASQTIGTWLAWYQQKPGKSPQLLIYAATSLADGVPSRFSGSGSGTKFSFKISSLQAEDFVSYYCQQLYSTPWTF
notes: also called antibody of Hybridoma C179 (FERM BP-4517)
Q: Does B1 bind?
A: no binding
